Source: patent publication US20220202905A1, “COMPOSITION FOR PREVENTING OR TREATING NEUROTROPHIC KERATITIS WHICH CONTAINS PACAP PEPTIDE OR STABILIZED PACAP PEPTIDE” (SENJU PHARMACEUTICAL CO., LTD., priority 2019, published 2022)
Square brackets hold non-standard residues; d marks the D form. Ala(1H-tetrazol-5-yl) = N[C@@H](Cc1nnn[nH]1)C(=O)O

T1: VPAC1 receptor (UniProt P32241 31-457, limits assumed)
T1 sequence (looked up): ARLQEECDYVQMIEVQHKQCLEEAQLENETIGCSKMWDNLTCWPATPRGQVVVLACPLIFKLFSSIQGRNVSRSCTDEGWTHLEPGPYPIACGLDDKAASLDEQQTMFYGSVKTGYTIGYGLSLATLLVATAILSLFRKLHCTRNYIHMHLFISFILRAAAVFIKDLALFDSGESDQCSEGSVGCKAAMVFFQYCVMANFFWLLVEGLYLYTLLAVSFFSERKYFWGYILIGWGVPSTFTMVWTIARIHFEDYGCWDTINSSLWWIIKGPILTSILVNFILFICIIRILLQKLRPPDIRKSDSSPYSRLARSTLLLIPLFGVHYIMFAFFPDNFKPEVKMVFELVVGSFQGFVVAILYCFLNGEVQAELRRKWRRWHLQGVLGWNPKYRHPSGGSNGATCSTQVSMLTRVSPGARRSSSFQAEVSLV

T2: PAC1 receptor (UniProt P41586 21-468, limits assumed)
T2 sequence (looked up): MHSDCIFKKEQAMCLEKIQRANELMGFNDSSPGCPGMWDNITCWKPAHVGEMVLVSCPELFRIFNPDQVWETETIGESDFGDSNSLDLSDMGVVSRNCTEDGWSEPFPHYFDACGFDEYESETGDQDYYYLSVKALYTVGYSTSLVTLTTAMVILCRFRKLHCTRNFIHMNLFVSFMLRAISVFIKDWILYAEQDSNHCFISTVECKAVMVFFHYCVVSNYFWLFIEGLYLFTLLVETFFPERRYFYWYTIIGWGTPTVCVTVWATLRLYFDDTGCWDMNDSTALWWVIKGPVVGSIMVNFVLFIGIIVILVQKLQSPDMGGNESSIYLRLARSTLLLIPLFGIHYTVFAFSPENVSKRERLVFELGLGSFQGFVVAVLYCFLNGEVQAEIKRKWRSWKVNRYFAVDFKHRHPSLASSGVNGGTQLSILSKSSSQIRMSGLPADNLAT


Columns and labels:
VPAC1 receptor = target: T1, VPAC1 receptor; experiment: cell-based or functional assay
PAC1 receptor = target: T2, PAC1 receptor; experiment: cell-based or functional assay

| EC50 (VPAC1R), cAMP inducing effect (VPAC1 receptor) [pM] | EC50 (PAC1R), cAMP inducing effect (PAC1 receptor) [pM] | Binder |
| --- | --- | --- |
| 72 | 79 | HSXAIFTXSYSRYRKQLAVKKYLAAVL (N-terminal acetyl (Ac-); Tz (aspartic acid with carboxyl group replaced by tetrazole) at positions 3 and 8; C-terminal amide (NH2)) [Peptide 23] |
| 44 | 60 | Ac-HS[Ala(1H-tetrazol-5-yl)]GIFT[Ala(1H-tetrazol-5-yl)]AYSRYRKQAAVKKYLAAVL-NH2 (SMILES CC[C@H](C)[C@H](NC(=O)CNC(=O)[C@H](Cc1nnn[nH]1)NC(=O)[C@H](CO)NC(=O)[C@H](Cc1c[nH]cn1)NC(C)=O)C(=O)N[C@@H](Cc1ccccc1)C(=O)N[C@H](C(=O)N[C@@H](Cc1nnn[nH]1)C(=O)N[C@@H](C)C(=O)N[C@@H](Cc1ccc(O)cc1)C(=O)N[C@@H](CO)C(=O)N[C@@H](CCCNC(=N)N)C(=O)N[C@@H](Cc1ccc(O)cc1)C(=O)N[C@@H](CCCNC(=N)N)C(=O)N[C@@H](CCCCN)C(=O)N[C@@H](CCC(N)=O)C(=O)N[C@@H](C)C(=O)N[C@@H](C)C(=O)N[C@H](C(=O)N[C@@H](CCCCN)C(=O)N[C@@H](CCCCN)C(=O)N[C@@H](Cc1ccc(O)cc1)C(=O)N[C@@H](CC(C)C)C(=O)N[C@@H](C)C(=O)N[C@@H](C)C(=O)N[C@H](C(=O)N[C@@H](CC(C)C)C(N)=O)C(C)C)C(C)C)[C@@H](C)O) [Peptide 27] |
| 29 | 84 | Ac-HS[Ala(1H-tetrazol-5-yl)]GIFT[Ala(1H-tetrazol-5-yl)]SYSRYRKAAAVKKYLAAVL-NH2 (SMILES CC[C@H](C)[C@H](NC(=O)CNC(=O)[C@H](Cc1nnn[nH]1)NC(=O)[C@H](CO)NC(=O)[C@H](Cc1c[nH]cn1)NC(C)=O)C(=O)N[C@@H](Cc1ccccc1)C(=O)N[C@H](C(=O)N[C@@H](Cc1nnn[nH]1)C(=O)N[C@@H](CO)C(=O)N[C@@H](Cc1ccc(O)cc1)C(=O)N[C@@H](CO)C(=O)N[C@@H](CCCNC(=N)N)C(=O)N[C@@H](Cc1ccc(O)cc1)C(=O)N[C@@H](CCCNC(=N)N)C(=O)N[C@@H](CCCCN)C(=O)N[C@@H](C)C(=O)N[C@@H](C)C(=O)N[C@@H](C)C(=O)N[C@H](C(=O)N[C@@H](CCCCN)C(=O)N[C@@H](CCCCN)C(=O)N[C@@H](Cc1ccc(O)cc1)C(=O)N[C@@H](CC(C)C)C(=O)N[C@@H](C)C(=O)N[C@@H](C)C(=O)N[C@H](C(=O)N[C@@H](CC(C)C)C(N)=O)C(C)C)C(C)C)[C@@H](C)O) [Peptide 28] |
| 88 | 83 | Ac-HA[Ala(1H-tetrazol-5-yl)]GIFT[Ala(1H-tetrazol-5-yl)]AYSRYRKQLAVKKYLAAVL-NH2 (SMILES CC[C@H](C)[C@H](NC(=O)CNC(=O)[C@H](Cc1nnn[nH]1)NC(=O)[C@H](C)NC(=O)[C@H](Cc1c[nH]cn1)NC(C)=O)C(=O)N[C@@H](Cc1ccccc1)C(=O)N[C@H](C(=O)N[C@@H](Cc1nnn[nH]1)C(=O)N[C@@H](C)C(=O)N[C@@H](Cc1ccc(O)cc1)C(=O)N[C@@H](CO)C(=O)N[C@@H](CCCNC(=N)N)C(=O)N[C@@H](Cc1ccc(O)cc1)C(=O)N[C@@H](CCCNC(=N)N)C(=O)N[C@@H](CCCCN)C(=O)N[C@@H](CCC(N)=O)C(=O)N[C@@H](CC(C)C)C(=O)N[C@@H](C)C(=O)N[C@H](C(=O)N[C@@H](CCCCN)C(=O)N[C@@H](CCCCN)C(=O)N[C@@H](Cc1ccc(O)cc1)C(=O)N[C@@H](CC(C)C)C(=O)N[C@@H](C)C(=O)N[C@@H](C)C(=O)N[C@H](C(=O)N[C@@H](CC(C)C)C(N)=O)C(C)C)C(C)C)[C@@H](C)O) [Peptide 24] |
| 268 | 102 | Ac-HS[Ala(1H-tetrazol-5-yl)]GIFT[Ala(1H-tetrazol-5-yl)]SYSRYRRQLAVRRYLAAVL-NH2 (SMILES CC[C@H](C)[C@H](NC(=O)CNC(=O)[C@H](Cc1nnn[nH]1)NC(=O)[C@H](CO)NC(=O)[C@H](Cc1c[nH]cn1)NC(C)=O)C(=O)N[C@@H](Cc1ccccc1)C(=O)N[C@H](C(=O)N[C@@H](Cc1nnn[nH]1)C(=O)N[C@@H](CO)C(=O)N[C@@H](Cc1ccc(O)cc1)C(=O)N[C@@H](CO)C(=O)N[C@@H](CCCNC(=N)N)C(=O)N[C@@H](Cc1ccc(O)cc1)C(=O)N[C@@H](CCCNC(=N)N)C(=O)N[C@@H](CCCNC(=N)N)C(=O)N[C@@H](CCC(N)=O)C(=O)N[C@@H](CC(C)C)C(=O)N[C@@H](C)C(=O)N[C@H](C(=O)N[C@@H](CCCNC(=N)N)C(=O)N[C@@H](CCCNC(=N)N)C(=O)N[C@@H](Cc1ccc(O)cc1)C(=O)N[C@@H](CC(C)C)C(=O)N[C@@H](C)C(=O)N[C@@H](C)C(=O)N[C@H](C(=O)N[C@@H](CC(C)C)C(N)=O)C(C)C)C(C)C)[C@@H](C)O) [Peptide 21] |
| 28 | 88 | Ac-HA[Ala(1H-tetrazol-5-yl)]GIFT[Ala(1H-tetrazol-5-yl)]SYSRYRKQAAVKKYLAAVL-NH2 (SMILES CC[C@H](C)[C@H](NC(=O)CNC(=O)[C@H](Cc1nnn[nH]1)NC(=O)[C@H](C)NC(=O)[C@H](Cc1c[nH]cn1)NC(C)=O)C(=O)N[C@@H](Cc1ccccc1)C(=O)N[C@H](C(=O)N[C@@H](Cc1nnn[nH]1)C(=O)N[C@@H](CO)C(=O)N[C@@H](Cc1ccc(O)cc1)C(=O)N[C@@H](CO)C(=O)N[C@@H](CCCNC(=N)N)C(=O)N[C@@H](Cc1ccc(O)cc1)C(=O)N[C@@H](CCCNC(=N)N)C(=O)N[C@@H](CCCCN)C(=O)N[C@@H](CCC(N)=O)C(=O)N[C@@H](C)C(=O)N[C@@H](C)C(=O)N[C@H](C(=O)N[C@@H](CCCCN)C(=O)N[C@@H](CCCCN)C(=O)N[C@@H](Cc1ccc(O)cc1)C(=O)N[C@@H](CC(C)C)C(=O)N[C@@H](C)C(=O)N[C@@H](C)C(=O)N[C@H](C(=O)N[C@@H](CC(C)C)C(N)=O)C(C)C)C(C)C)[C@@H](C)O) [Peptide 25] |
| 457 | 130 | Ac-HS[Ala(1H-tetrazol-5-yl)]GIFT[Ala(1H-tetrazol-5-yl)]SYSRYRRQLAVRRYLAAVLGRR-NH2 (SMILES CC[C@H](C)[C@H](NC(=O)CNC(=O)[C@H](Cc1nnn[nH]1)NC(=O)[C@H](CO)NC(=O)[C@H](Cc1c[nH]cn1)NC(C)=O)C(=O)N[C@@H](Cc1ccccc1)C(=O)N[C@H](C(=O)N[C@@H](Cc1nnn[nH]1)C(=O)N[C@@H](CO)C(=O)N[C@@H](Cc1ccc(O)cc1)C(=O)N[C@@H](CO)C(=O)N[C@@H](CCCNC(=N)N)C(=O)N[C@@H](Cc1ccc(O)cc1)C(=O)N[C@@H](CCCNC(=N)N)C(=O)N[C@@H](CCCNC(=N)N)C(=O)N[C@@H](CCC(N)=O)C(=O)N[C@@H](CC(C)C)C(=O)N[C@@H](C)C(=O)N[C@H](C(=O)N[C@@H](CCCNC(=N)N)C(=O)N[C@@H](CCCNC(=N)N)C(=O)N[C@@H](Cc1ccc(O)cc1)C(=O)N[C@@H](CC(C)C)C(=O)N[C@@H](C)C(=O)N[C@@H](C)C(=O)N[C@H](C(=O)N[C@@H](CC(C)C)C(=O)NCC(=O)N[C@@H](CCCNC(=N)N)C(=O)N[C@@H](CCCNC(=N)N)C(N)=O)C(C)C)C(C)C)[C@@H](C)O) [Peptide 22] |
| 75 | 66 | Ac-HS[Ala(1H-tetrazol-5-yl)]GIFT[Ala(1H-tetrazol-5-yl)]AYSRYRKALAVKKYLAAVL-NH2 (SMILES CC[C@H](C)[C@H](NC(=O)CNC(=O)[C@H](Cc1nnn[nH]1)NC(=O)[C@H](CO)NC(=O)[C@H](Cc1c[nH]cn1)NC(C)=O)C(=O)N[C@@H](Cc1ccccc1)C(=O)N[C@H](C(=O)N[C@@H](Cc1nnn[nH]1)C(=O)N[C@@H](C)C(=O)N[C@@H](Cc1ccc(O)cc1)C(=O)N[C@@H](CO)C(=O)N[C@@H](CCCNC(=N)N)C(=O)N[C@@H](Cc1ccc(O)cc1)C(=O)N[C@@H](CCCNC(=N)N)C(=O)N[C@@H](CCCCN)C(=O)N[C@@H](C)C(=O)N[C@@H](CC(C)C)C(=O)N[C@@H](C)C(=O)N[C@H](C(=O)N[C@@H](CCCCN)C(=O)N[C@@H](CCCCN)C(=O)N[C@@H](Cc1ccc(O)cc1)C(=O)N[C@@H](CC(C)C)C(=O)N[C@@H](C)C(=O)N[C@@H](C)C(=O)N[C@H](C(=O)N[C@@H](CC(C)C)C(N)=O)C(C)C)C(C)C)[C@@H](C)O) [Peptide 26] |
